Assay results reported in paper PMC11585616, “Allosteric substrate release by a sialic acid TRAP transporter substrate binding protein” (Communications Biology, 2024).
Values joined by “and” are separate entries in the source; they are usually repeats but may differ in a detail not shown here. Equal entries are not always repeated.

B1: VHHVcP #1 (VHH)
VHH: QVQLVESGGGLVQAGGSLRLSCAASGRTFSSSTMGWFRQAPGKEREFVAGISWSDGSTYYADSVKGRFTISRDNAKNTVYLQMNSLKPEDSAVYYCAAERWLATPQAMAVTPNALDAWGQGTQVTVSS
notes: alpaca VHH raised against VcSiaP; A second construct (pET28a, N-terminal pelB-His6-TEV, tag cleaved) was made to improve crystallization; also called Vc#1; source: E. coli WK6, periplasmic extract, purified (Ni2+-NTA, SEC); not shown: HA, C-terminal, kept; His6, C-terminal, kept
B2: VHHVcP #2 (VHH)
VHH: QVQLVESGGRLVQTGGSLRLSCAASGDTFSNYVMGWFRQAPGKEREFVAAISWTGANSYYADSVAGRFTISRDNAKNTVALQMNSLKPEDTAIYYCAADHFHVTHRKYDYWGQGTQVTVSS
notes: alpaca VHH raised against VcSiaP; A second construct (pET28a, N-terminal pelB-His6-TEV, tag cleaved) was made to improve crystallization; also called Vc#2; source: E. coli WK6, periplasmic extract, purified (Ni2+-NTA, SEC); not shown: HA, C-terminal, kept; His6, C-terminal, kept

Assays:
Conditions in all cases: both partners purified
[1] = target: T1, VcSiaP (Vibrio cholerae O1 El Tor N16961 …, UniProt Q9KR64); assay: ITC; VHH titrated to the SBP, 25 °C, 50 mM Tris, 50 mM NaCl, pH 8.0; one set of sites model
T1 construct: all residues 1-299 seen in the crystal structures; also called SiaP from V. cholerae; VcSiaPwt; not shown: His6, N-terminal, cleaved
T1 sequence (Q9KR64 23-321, one chain of several): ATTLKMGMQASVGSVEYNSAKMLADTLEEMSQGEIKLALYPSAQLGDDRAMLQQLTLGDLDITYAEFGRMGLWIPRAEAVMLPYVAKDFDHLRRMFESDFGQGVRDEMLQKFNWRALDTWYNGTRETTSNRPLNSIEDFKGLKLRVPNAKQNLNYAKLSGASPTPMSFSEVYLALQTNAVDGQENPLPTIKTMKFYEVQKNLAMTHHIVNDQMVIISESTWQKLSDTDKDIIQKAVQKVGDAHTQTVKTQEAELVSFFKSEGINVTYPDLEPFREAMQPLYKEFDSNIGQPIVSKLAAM

[2] = target: T1, VcSiaP; assay: SEC-MALS; Superose6 increase 10/300, room temperature, 50 mM Tris, 50 mM NaCl, pH 8.0; 120 uM of each protein
[3] = target: T1, VcSiaP; assay: ITC; SiaP first loaded with Neu5Ac, then titrated with the VHH (sequential titration), 25 °C, 50 mM Tris, 50 mM NaCl, pH 8.0; competitive binding model for the wild type

Binder	Kd [1]	stoichiometry N [2]	stoichiometry N [3]
B1	162 nM	1	–
B2	13 nM and 16 nM	1	~1
